From the RNAGym collection of RNA variant scans (doi:10.1093/molbev/msab373)

B1: Azoarcus group I ribozyme (parent)
chain: GUGCCUUGCGCCGGGAAACCACGCAAGGGAUGGUGUCAAAUUCGGCGAAACCUAAGCGCCCGCCCGGGCGUAUGGCAACGCCGAGCCAAGCUUCGGCGCCUGCGCCGAUGAAGGUGUAGAGACUAGACGGCACCCACCUAAGGCAAACGCUAUGGUGAAGGCAUAGUCCAGGGAGUGGCGAAAGUCACACAAACCGG

Variants of: B1
Experiment: reverse-splicing fitness (ratio to wild type); higher = more active; in vitro selection; Mg2+ level not given
How it was run: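 An in vitro group I ribozyme library with randomized positions was T7-transcribed and gel-purified. In triplicate, 10 pmol RNA in EPPS pH 7.5 was reacted with 50 pmoles of a 30-nt RNA substrate for 1 h at 37 °C across several added MgCl2 levels (1–48 mM), then stopped with EDTA. Products were reverse transcribed from a substrate-complementary primer, PCR-amplified and sequenced (HiSeq 4000). Fitness is a variant's read proportion after selection over that before, normalised to wild type.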

Row | Variant | reverse-splicing fitness
1 | GUGCCUUGCGCCGGGAAACCACGCAAGGGAUGGUGUCAAAUUCGGCGAAACCUAAGCGCCCGCCCGGGCGUAUGGCAACGCUGAGCCAAGCUUCGGCGCCUGCGCCGAUGGAGGUGUAGGGACUAGACGGCACCCACCUAAGGCAAACGGUAUGGUGAAGGCAUAGUCGAGGGAGCGGCGAAAGUCACACAAACCGG [C82U A111G A120G C150G C169G U176C] | 0.00458
2 | GUGCCUUGCGCCGGGAAACCACGCAAGGGAUGGUGUCAAAUUCGGCGAAACCUAAGCGCCCGCCCGGGCGUAUGGCAACGCUGAGCCAAGCUUCGGCGCCUGCGCCGAUGGAGGUGUAGGGACUAGACGGCACCCACCUAAGGCAAACGGUAUGGUGAAGGCAUAGUCGAGGGAGGGGCGAAAGUCACACAAACCGG [C82U A111G A120G C150G C169G U176G] | 0.00428
3 | GUGCCUUGCGCCGGGAAACCACGCAAGGGAUGGUGUCAAAUUCGGCGAAACCUAAGCGCCCGCCCGGGCGUAUGGCAACGCUGAGCCAAGCUUCGGCGCCUGCGCCGAUGGAGGUGUAGGGACUAGACGGCACCCACCUAAGGCAAACGGUAUGGUGAAGGCAUAGUCGAGGGAGAGGCGAAAGUCACACAAACCGG [C82U A111G A120G C150G C169G U176A] | 0.00604
4 | GUGCCUUGCGCCGGGAAACCACGCAAGGGAUGGUGUCAAAUUCGGCGAAACCUAAGCGCCCGCCCGGGCGUAUGGCAACGCUGAGCCAAGCUUCGGCGCCUGCGCCGAUGGAGGUGUAGGGACUAGACGGCACCCACCUAAGGCAAACGAUAUGGUGAAGGCAUAGUCGAGGGAGGGGCGAAAGUCACACAAACCGG [C82U A111G A120G C150A C169G U176G] | 0.00435
5 | GUGCCUUGCGCCGGGAAACCACGCAAGGGAUGGUGUCAAAUUCGGCGAAACCUAAGCGCCCGCCCGGGCGUAUGGCAACGCUGAGCCAAGCUUCGGCGCCUGCGCCGAUGGAGGUGUAGGGACUAGACGGCACCCACCUAAGGCAAACGAUAUGGUGAAGGCAUAGUCGAGGGAGCGGCGAAAGUCACACAAACCGG [C82U A111G A120G C150A C169G U176C] | 0.0197
6 | GUGCCUUGCGCCGGGAAACCACGCAAGGGAUGGUGUCAAAUUCGGCGAAACCUAAGCGCCCGCCCGGGCGUAUGGCAACGCUGAGCCAAGCUUCGGCGCCUGCGCCGAUGGAGGUGUAGGGACUAGACGGCACCCACCUAAGGCAAACGGUAUGGUGAAGGCAUAGUCAAGGGAGUGGCGAAAGUCACACAAACCGG [C82U A111G A120G C150G C169A] | 0.00895
7 | GUGCCUUGCGCCGGGAAACCACGCAAGGGAUGGUGUCAAAUUCGGCGAAACCUAAGCGCCCGCCCGGGCGUAUGGCAACGCUGAGCCAAGCUUCGGCGCCUGCGCCGAUGGAGGUGUAGGGACUAGACGGCACCCACCUAAGGCAAACGGUAUGGUGAAGGCAUAGUCGAGGGAGUGGCGAAAGUCACACAAACCGG [C82U A111G A120G C150G C169G] | 0.00749
8 | GUGCCUUGCGCCGGGAAACCACGCAAGGGAUGGUGUCAAAUUCGGCGAAACCUAAGCGCCCGCCCGGGCGUAUGGCAACGCUGAGCCAAGCUUCGGCGCCUGCGCCGAUGGAGGUGUAGGGACUAGACGGCACCCACCUAAGGCAAACGGUAUGGUGAAGGCAUAGUCUAGGGAGUGGCGAAAGUCACACAAACCGG [C82U A111G A120G C150G C169U] | 0.00822
9 | GUGCCUUGCGCCGGGAAACCACGCAAGGGAUGGUGUCAAAUUCGGCGAAACCUAAGCGCCCGCCCGGGCGUAUGGCAACGCUGAGCCAAGCUUCGGCGCCUGCGCCGAUGGAGGUGUAGGGACUAGACGGCACCCACCUAAGGCAAACGGUAUGGUGAAGGCAUAGUCAAGGGAGCGGCGAAAGUCACACAAACCGG [C82U A111G A120G C150G C169A U176C] | 0.0101
10 | GUGCCUUGCGCCGGGAAACCACGCAAGGGAUGGUGUCAAAUUCGGCGAAACCUAAGCGCCCGCCCGGGCGUAUGGCAACGCUGAGCCAAGCUUCGGCGCCUGCGCCGAUGGAGGUGUAGGGACUAGACGGCACCCACCUAAGGCAAACGGUAUGGUGAAGGCAUAGUCAAGGGAGAGGCGAAAGUCACACAAACCGG [C82U A111G A120G C150G C169A U176A] | 0.00933
11 | GUGCCUUGCGCCGGGAAACCACGCAAGGGAUGGUGUCAAAUUCGGCGAAACCUAAGCGCCCGCCCGGGCGUAUGGCAACGCUGAGCCAAGCUUCGGCGCCUGCGCCGAUGGAGGUGUAGGGACUAGACGGCACCCACCUAAGGCAAACGGUAUGGUGAAGGCAUAGUCAAGGGAGGGGCGAAAGUCACACAAACCGG [C82U A111G A120G C150G C169A U176G] | 0.00628
12 | GUGCCUUGCGCCGGGAAACCACGCAAGGGAUGGUGUCAAAUUCGGCGAAACCUAAGCGCCCGCCCGGGCGUAUGGCAACGCUGAGCCAAGCUUCGGCGCCUGCGCCGAUGGAGGUGUAGGGACUAGACGGCACCCACCUAAGGCAAACGUUAUGGUGAAGGCAUAGUCAAGGGAGUGGCGAAAGUCACACAAACCGG [C82U A111G A120G C150U C169A] | 0.0105
13 | GUGCCUUGCGCCGGGAAACCACGCAAGGGAUGGUGUCAAAUUCGGCGAAACCUAAGCGCCCGCCCGGGCGUAUGGCAACGCUGAGCCAAGCUUCGGCGCCUGCGCCGAUGGAGGUGUAGGGACUAGACGGCACCCACCUAAGGCAAACGAUAUGGUGAAGGCAUAGUCCAGGGAGGGGCGAAAGUCACACAAACCGG [C82U A111G A120G C150A U176G] | 0.00658
14 | GUGCCUUGCGCCGGGAAACCACGCAAGGGAUGGUGUCAAAUUCGGCGAAACCUAAGCGCCCGCCCGGGCGUAUGGCAACGCUGAGCCAAGCUUCGGCGCCUGCGCCGAUGGAGGUGUAGGGACUAGACGGCACCCACCUAAGGCAAACGAUAUGGUGAAGGCAUAGUCCAGGGAGAGGCGAAAGUCACACAAACCGG [C82U A111G A120G C150A U176A] | 0.00996
15 | GUGCCUUGCGCCGGGAAACCACGCAAGGGAUGGUGUCAAAUUCGGCGAAACCUAAGCGCCCGCCCGGGCGUAUGGCAACGCUGAGCCAAGCUUCGGCGCCUGCGCCGAUGGAGGUGUAGGGACUAGACGGCACCCACCUAAGGCAAACGAUAUGGUGAAGGCAUAGUCCAGGGAGCGGCGAAAGUCACACAAACCGG [C82U A111G A120G C150A U176C] | 0.016
